Reference: patent US20250333441A1, “POLYPEPTIDE INHIBITORS AND USES THEREOF” (Neuracle Science Co., Ltd., priority 2021, published 2025)
Where a SMILES comes first, the peptide text is derived from it. Where no end group is shown, it is not given here. [ ]: non-standard residue; d: D form.

Assays:
[1] = biological target: complex of His-TEV LRRC4B and recombinant FAM19A5 protein (Homo sapiens, UniProt Q7Z5A7); assay: Competitive inhibition assay (IC50), plate coated with His-TEV LRRC4B; format: binding; conditions: FIG. 22C; d-form peptides; methods as for Table 15
Method: To further assess the inhibitory effect of the FB-21 mutants, the ability of additional FB-21 mutants described in Example 9 were tested for their ability to inhibit the interaction between FAM19A5 protein and LRRC4B protein. Briefly, plates were coated with 100 nM of His-TEV LRRC4B and then 1 ng/mL of rFAM19A5 was incubated at 37° C. in the presence of increasing concentrations of the FB-21 peptide fragments (0.3, 1, 3, 10, 30, 100, 300, 1000, 3000 and 10000 nM). The LRRC4B-bound FAM19A5 levels were measured using HRP-conjugated 1-65 SS01 antibody. As shown in FIG. 22B (see Table 15 for IC50), most (if not all) of the FB-21 mutants had improved ability in inhibiting the interaction between LRRC4B and recombinant FAM19A5 protein.
Next, to assess whether other properties of the polypeptides described herein can be improved (e.g., solubility, prevention of degradation from protease and peptidase, and in vivo administration), the following additional FB-21 peptide mutants were constructed and tested for their ability to inhibit the interaction between FAM19A5 protein and LRRC4B: (1) d-form FB-21 peptide (“dFB-21”), (2) d-form FB-21 peptide with juxta-membrane (JM) sequence (“dFB-JM-31”), (3) d-form FB-21 peptide with BBB penetrating sequence at each end of the sequence (“dFB-BBB-39”), and (4) d-form FB-21 mutant peptide with DY replacement and additional JM sequence (“dFB-DY-JM31”). […]

[2] = biological target: complex of human LRRC4B protein (hFc-fused) and recombinant FAM19A5 protein (Homo sapiens, UniProt Q7Z5A7); assay: Competitive inhibition assay (IC50), plate coated with LRRC4B(453-576, TT/TT)-hFc; format: binding; conditions: hFc-fused hLRRC4B; from IC50 of Table 14
Method: The in silico analysis provided in Example 9 highlighted that certain T12 and L13 double mutants might be important in improving the binding affinity of the polypeptides of the present disclosure to the FAM19A5 protein. Therefore, the ability of both the wild-type FB-21 peptide (which is the same as the FB-20 peptide described herein except that the FB-21 peptide additionally contains an alanine at the C-terminus) and several FB-21 mutants were tested for their inhibitor effect on hFc-fused hLRRC4B and FAM19A5 complex formation. Briefly, plate was coated with 100 nM of LRRC4B(453-576, TT/TT)-hFc and then 1 ng/mL of rFAM19A5 was incubated at 37° C. in the presence of increasing concentrations of the different FB-21 peptide fragments (0.03, 0.1, 0.3, 1, 3, 10, 30, 100, 300 and 1000 nM). The LRRC4B-bound FAM19A5 levels were measured using HRP-conjugated 1-65 antibody.

[3] = biological target: T1, FAM19A5 (isoform 2) - full-length LRRC4B protein complex (Homo sapiens, UniProt Q7Z5A7); assay: Immunofluorescence: dissociation of FAM19A5 from full-length LRRC4B in HEK293 cells; format: cell-based; conditions: HEK293 cells expressing FAM19A5 isoform 2 and LRRC4B, treated 30 minutes
T1 construct: expressed in transfected cells; host or cells: HEK293
Method: Since LRRC4B protein fragments containing the binding domain described in Example 2 (e.g., LRRC4B (453-576); i.e., construct #11 in Table 6) was able to bind to FAM19A5 protein with high affinity, it was next assessed whether such protein fragments could compete with naturally existing LRRC4B protein for binding to FAM19A5 protein, and thereby, dissociate the FAM19A5-LRRC4 protein family complex. Briefly, HEK293 cells expressing both FAM19A5 isoform 2 and LRRC4B protein were treated (i.e., cultured in vitro) for 30 minutes with either LRRC4B (453-576)-hFc or mutant LRRC4B (453-576)-hFc (includes alanine substitutions at positions 488 and 489 of SEQ ID NO: 2; SEQ ID NO: 16) protein fragments. Then, the cells were immunostained with anti-FAM19A5 (1-65) and anti-LRRC4B antibodies to determine the expression of FAM19A5 and full-length LRRC4B proteins, respectively. The hFc-fused LRRC4B protein fragments were determined using an anti-hIgG antibody. The nuclei were stained with Hoechst 33342.

[4] = biological target: binding of FAM19A5 protein to full-length ectodomain of the LRRC4B protein (amino acids 36-576)-hFc (Homo sapiens, UniProt Q7Z5A7); assay: Competitive inhibition assay, plate coated with full-length LRRC4B ectodomain; conditions: 100 nM coated ectodomain; FAM19A5 5 ng/mL; increasing concentrations
Method: Next, to further assess the role that the binding domain of the LRRC4B protein has on the interaction between FAM19A5 protein and members of the LRRC4 protein family, a competitive inhibition assay was used to determine whether different LRRC4B deletion constructs from Example 2 could inhibit the binding of FAM19A5 to the full-length ectodomain of the LRRC4B protein (i.e., amino acids 36-576 of SEQ ID NO: 2; SEQ ID NO: 5). Briefly, 100 nM of the full-length ectodomain of the LRRC4B protein was used to coat a plate, and then recombinant FAM19A5 protein (5 ng/mL) was added to the plate in combination with the following LRRC4B deletion constructs (increasing concentrations): (1) LRRC4B (453-576) (i.e., construct #11 in Table 6); (2) LRRC4B (453-576) mutant (comprises alanine substitutions at positions 488 and 489 of SEQ ID NO: 2; SEQ ID NO: 16); (3) LRRC4B (484-576) (i.e., construct #12 in Table 6); (4) LRRC4B (482-576); (5) LRRC4B (482-497); and (6) LRRC4B (498-576). The plates were incubated at 37° C., and then, the amount of FAM19A5 bound to the coated LRRC4B ectodomain protein was measured using H1RP-conjugated anti-FAM19A5 (1-65) antibody. […]

[5] = biological target: binding of FAM19A5 protein to full-length ectodomain of LRRC4 protein (Homo sapiens, UniProt Q7Z5A7); assay: Competitive inhibition assay, plate coated with full-length LRRC4 ectodomain; conditions: 100 nM/well coated full-length LRRC4 ectodomain; FAM19A5 5 ng/mL
Method: (§1) As described in Example 3, there appeared to be much similarity in the binding domains of the different members of the LRRC4 family. […] Then, recombinant FAM19A5 protein (5 ng/mL) was added in combination with one of the following: (i) LRRC4B (484-576) protein fragment, (ii) LRRC4B (453-576, AA) protein fragment, and (iii) synthetic FB-20 peptide. The plates were incubated at 37° C., and then, the amount of FAM19A5 protein bound to the coated LRRC4, LRRC4B, or LRRC4C proteins was measured using anti-FAM19A5 (1-65) antibody.

[6] = biological target: binding of FAM19A5 protein to full-length ectodomain of LRRC4C protein (Homo sapiens, UniProt Q7Z5A7); assay: Competitive inhibition assay, plate coated with full-length LRRC4C ectodomain; conditions: 100 nM/well coated full-length LRRC4C ectodomain; FAM19A5 5 ng/mL
Method: as §1

FAM19A5 protein = FAM19A5 protein (Homo sapiens, UniProt Q7Z5A7); assay: competitive inhibition ELISA; competitor: coated LRRC4B(453-576, TT/TT)-hFc

Chain of complex of His-TEV LRRC4B and recombinant FAM19A5 protein (Q7Z5A7 44-132, one chain of several): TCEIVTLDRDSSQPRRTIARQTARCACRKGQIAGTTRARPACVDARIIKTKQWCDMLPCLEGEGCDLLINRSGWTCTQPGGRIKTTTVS
Chain of binding of FAM19A5 protein to full-length ectodomain of LRRC4 protein (Q7Z5A7 44-132): as the sequence (Q7Z5A7 44-132, one chain of several) above
Chain of binding of FAM19A5 protein to full-length ectodomain of LRRC4C protein (Q7Z5A7 44-132): as the sequence (Q7Z5A7 44-132, one chain of several) above
Chain of complex of human LRRC4B protein (hFc-fused) and recombinant FAM19A5 protein (Q7Z5A7 44-132, one chain of several): as above
Chain of binding of FAM19A5 protein to full-length ectodomain of the LRRC4B protein (amino acids 36-576)-hFc (Q7Z5A7 44-132): as the sequence (Q7Z5A7 44-132, one chain of several) above
T1 sequence (Q7Z5A7 1-125 isoform Q7Z5A7-2, one chain of several): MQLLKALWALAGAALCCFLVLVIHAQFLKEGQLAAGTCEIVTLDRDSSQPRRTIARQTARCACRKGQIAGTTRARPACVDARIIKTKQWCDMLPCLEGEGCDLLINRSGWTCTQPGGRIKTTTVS

nYTYFTTVTVEDYETQPGEEALDEVMKTTKa ([dN]YTYFTTVTVEDYETQPGEEALDEVMKTTK[dA]; also: terminal modifications) [dFB-DY-JM31]
more effective in inhibiting complex formation compared to the wild-type FB-21 [1]: 4 fold

CC(C)[C@H](NC(=O)[C@@H](NC(=O)[C@@H](NC(=O)[C@@H](NC(=O)[C@@H](NC(=O)[C@H](Cc1ccccc1)NC(=O)[C@H](Cc1ccc(O)cc1)NC(=O)[C@@H](NC(=O)[C@H](Cc1ccc(O)cc1)NC(=O)CN)[C@@H](C)O)[C@@H](C)O)[C@@H](C)O)C(C)C)[C@@H](C)O)C(=O)N[C@@H](CCC(=O)O)C(=O)N[C@@H](Cc1c[nH]c2ccccc12)C(=O)N[C@@H](Cc1ccc(O)cc1)C(=O)N[C@@H](CCC(=O)O)C(=O)N[C@H](C(=O)N[C@@H](CCC(N)=O)C(=O)N1CCC[C@H]1C(=O)NCC(=O)N[C@@H](CCC(=O)O)C(=O)N[C@@H](CCC(=O)O)C(=O)N[C@@H](C)C(=O)O)[C@@H](C)O [FB-21 (W12Y13)] (H-GYTYFTTVTVEWYETQPGEEA-OH; N-terminus and C-terminus assumed)
increase in ability to dissociate the LRRC4B-FAM19A5 complex compared with wild-type FB-21 [2]: 2.9 fold

B1: LRRC4B mutant: LRRC4B (453-576) with alanine substitutions at positions 488 and 489 of SEQ ID NO: 2 (SEQ ID NO: 16) (protein)
chain: VSAVDPVAAGGTGSGGGGPGGSGGVGGGSGGYTYFAAVTVETLETQPGEEALQPRGTEKEPPGPTTDGVWGGGRPGDAAGPASSSTTAPAPRSSRPTEKAFTVPITDVTENALKDLDDVMKTTK
modifications: human Fc fusion in use
dissociation of FAM19A5 from full-length LRRC4B protein [3]: FAM19A5 protein remained largely bound | inhibition of FAM19A5 binding to coated full-length LRRC4B ectodomain protein [4]: much inferior in their ability to inhibit the interaction | inhibition of FAM19A5 binding to coated LRRC4 protein [5]: minimal effect | inhibition of FAM19A5 binding to coated LRRC4C protein [6]: minimal effect

GYTYFTTVTVEWYETQPGEEA [FB-21 (W12Y13)]
fold increase in ability to dissociate the LRRC4B-FAM19A5 complex, against wild-type FB-21 (FAM19A5 protein): 2.9 fold
